Source: paper PMC7058361, “Functional interactions between posttranslationally modified amino acids of methyl-coenzyme M reductase in Methanosarcina acetivorans” (PLoS Biology, 2020)

B1: McrA from the ΔmamAΔmcmAΔycaO-tfuA triple mutant of M. acetivorans (lacks 5-(S)-methylarginine, S-methylcysteine and thioglycine) (natural protein, Methanosarcina acetivorans, UniProt Q8THH1 1-570, looked up)
chain: MAADIFAKFKKSMEVKFTQEYGSNKQAGGDITGKTEKFLRLGPEQDARKQEMIKAGKEIAEKRGIAFYNPMMHMGAPLGQRAITPYTISGTDIVAEPDDLHYVNNAAMQQMWDDIRRTCIVGLDMAHETLEKRLGKEVTPETINHYLETLNHAMPGAAVVQEMMVETHPALVDDCYVKIFTGDDELADEIDKQYVINVNKMFSEEQAAQIKASIGKTTWQAIHIPTIVSRTTDGAQTSRWAAMQIGMSFISAYAMCAGEAAVADLSFAAKHAALVSMGEMLPARRARGPNEPGGLSFGHLSDIVQTSRVSKDPAKIALEVVGAGCMLYDQIWLGSYMSGGVGFTQYATAAYTDDILDNNTYYDVDYINDKYNGAANLGTDNKVKATLDVVKDIATESTLYGIETYEKFPTALEDHFGGSQRATVLAAASGVACALATGNANAGLSGWYLSMYVHKEAWGRLGFFGFDLQDQCGATNVLSYQGDEGLPDELRGPNYPNYAMNVGHQGGYAGIAQAAHSGRGDAFTVNPLLKVCFADELMPFNFAEPRREFGRGAIREFMPAGERSLVIPAK
modifications: N1-methylhistidine at His271; didehydroaspartate at Asp470; Arg285, Gly465 and Cys472 unmodified
notes: McrA, alpha subunit of methyl-coenzyme M reductase, Methanosarcina acetivorans; chromosomally encoded; differs only in the posttranslational modifications; also called McrA from the triple-deletion mutant; source: endogenous, M. acetivorans ΔmamAΔmcmAΔycaO-tfuA strain with TAP-tagged mcrG
B2: McrA from the ΔmamAΔmcmA double mutant of M. acetivorans (lacks 5-(S)-methylarginine and S-methylcysteine) (natural protein, Methanosarcina acetivorans, UniProt Q8THH1 1-570, looked up)
chain: B1 chain
modifications: N1-methylhistidine at His271; thioglycine at Gly465; didehydroaspartate at Asp470; Arg285 and Cys472 unmodified
notes: McrA, alpha subunit of methyl-coenzyme M reductase, Methanosarcina acetivorans; chromosomally encoded; differs only in the posttranslational modifications; source: endogenous, M. acetivorans ΔmamAΔmcmA strain with TAP-tagged mcrG
B3: McrA from the ΔmcmA mutant of M. acetivorans (lacks S-methylcysteine) (natural protein, Methanosarcina acetivorans, UniProt Q8THH1 1-570, looked up)
chain: B1 chain
modifications: N1-methylhistidine at His271; 5-(S)-methylarginine at Arg285; thioglycine at Gly465; didehydroaspartate at Asp470; Cys472 unmodified
notes: McrA, alpha subunit of methyl-coenzyme M reductase, Methanosarcina acetivorans; chromosomally encoded; differs only in the posttranslational modifications; also called McrA with unmodified Cys472; source: endogenous, M. acetivorans ΔmcmA strain with TAP-tagged mcrG
B4: McrA from the ΔmcmAΔycaO-tfuA double mutant of M. acetivorans (lacks S-methylcysteine and thioglycine) (natural protein, Methanosarcina acetivorans, UniProt Q8THH1 1-570, looked up)
chain: B1 chain
modifications: N1-methylhistidine at His271; 5-(S)-methylarginine at Arg285; didehydroaspartate at Asp470; Gly465 and Cys472 unmodified
notes: McrA, alpha subunit of methyl-coenzyme M reductase, Methanosarcina acetivorans; chromosomally encoded; differs only in the posttranslational modifications; also called McrA from ΔycaO-tfuA/ΔmcmA; source: endogenous, M. acetivorans ΔmcmAΔycaO-tfuA strain with TAP-tagged mcrG
B5: McrA from the ΔmamA mutant of M. acetivorans (lacks 5-(S)-methylarginine) (natural protein, Methanosarcina acetivorans, UniProt Q8THH1 1-570, looked up)
chain: B1 chain
modifications: N1-methylhistidine at His271; thioglycine at Gly465; didehydroaspartate at Asp470; S-methylcysteine at Cys472; Arg285 unmodified
notes: McrA, alpha subunit of methyl-coenzyme M reductase, Methanosarcina acetivorans; chromosomally encoded; differs only in the posttranslational modifications; also called McrA with unmodified Arg285; source: endogenous, M. acetivorans ΔmamA strain with TAP-tagged mcrG
B6: McrA from the ΔycaO-tfuA mutant of M. acetivorans (lacks thioglycine) (natural protein, Methanosarcina acetivorans, UniProt Q8THH1 1-570, looked up)
chain: B1 chain
modifications: N1-methylhistidine at His271; 5-(S)-methylarginine at Arg285; didehydroaspartate at Asp470; S-methylcysteine at Cys472; Gly465 unmodified
notes: McrA, alpha subunit of methyl-coenzyme M reductase, Methanosarcina acetivorans; chromosomally encoded; differs only in the posttranslational modifications; also called McrA with unmodified Gly465; source: endogenous, M. acetivorans ΔycaO-tfuA strain with TAP-tagged mcrG
B7: McrA from the ΔmamAΔycaO-tfuA double mutant of M. acetivorans (lacks 5-(S)-methylarginine and thioglycine) (natural protein, Methanosarcina acetivorans, UniProt Q8THH1 1-570, looked up)
chain: B1 chain
modifications: N1-methylhistidine at His271; didehydroaspartate at Asp470; S-methylcysteine at Cys472; Arg285 and Gly465 unmodified
notes: McrA, alpha subunit of methyl-coenzyme M reductase, Methanosarcina acetivorans; chromosomally encoded; differs only in the posttranslational modifications; source: endogenous, M. acetivorans ΔmamAΔycaO-tfuA strain with TAP-tagged mcrG
B8: alpha subunit of methyl-coenzyme M reductase (McrA) from wild-type M. acetivorans, fully modified (natural protein, Methanosarcina acetivorans, UniProt Q8THH1 1-570, looked up)
chain: B1 chain
modifications: N1-methylhistidine at His271; 5-(S)-methylarginine at Arg285; thioglycine at Gly465; didehydroaspartate at Asp470; S-methylcysteine at Cys472
notes: McrA, alpha subunit of methyl-coenzyme M reductase, Methanosarcina acetivorans; chromosomally encoded; Two copies stand in the α2β2γ2 complex; also called α subunit of MCR; α-subunit; source: endogenous, M. acetivorans strain with TAP-tagged mcrG

Molecular target: the molecule itself
Assay: crystal structure; TAP-tagged MCR variants affinity-purified aerobically from the modification mutants, inactive Ni(II) form; 3-30 mg/ml, hanging drops, same reservoir solution as the wild type; 1.9-2.3 Å

Binding result, binds:
B1, B2, B3, B4, B5, B6, B7

Molecular target: the molecule itself
Assay: crystal structure; wild-type TAP-tagged MCR complex affinity-purified aerobically from M. acetivorans, inactive Ni(II) form; 25 mg/ml, sitting drops, 0.2 M ammonium acetate, 0.1 M sodium acetate pH 4, 15% PEG 4000, room temperature; 1.65 Å

Binding result, binds:
B8
